In paper PMC6738421:

What was measured:
[1] = target: Arginyl-tRNA-protein transferase Ate1, isoform Ate1-3 (mouse) (UniProt Q9Z2A5)
[2] = target: Arginyl-tRNA-protein transferase Ate1, isoform Ate1-1 (mouse) (UniProt Q9Z2A5)
Arginyl-tRNA-protein transferase Ate1, isoform Ate1-1 (mouse), sequence (Q9Z2A5 whole entry, canonical isoform): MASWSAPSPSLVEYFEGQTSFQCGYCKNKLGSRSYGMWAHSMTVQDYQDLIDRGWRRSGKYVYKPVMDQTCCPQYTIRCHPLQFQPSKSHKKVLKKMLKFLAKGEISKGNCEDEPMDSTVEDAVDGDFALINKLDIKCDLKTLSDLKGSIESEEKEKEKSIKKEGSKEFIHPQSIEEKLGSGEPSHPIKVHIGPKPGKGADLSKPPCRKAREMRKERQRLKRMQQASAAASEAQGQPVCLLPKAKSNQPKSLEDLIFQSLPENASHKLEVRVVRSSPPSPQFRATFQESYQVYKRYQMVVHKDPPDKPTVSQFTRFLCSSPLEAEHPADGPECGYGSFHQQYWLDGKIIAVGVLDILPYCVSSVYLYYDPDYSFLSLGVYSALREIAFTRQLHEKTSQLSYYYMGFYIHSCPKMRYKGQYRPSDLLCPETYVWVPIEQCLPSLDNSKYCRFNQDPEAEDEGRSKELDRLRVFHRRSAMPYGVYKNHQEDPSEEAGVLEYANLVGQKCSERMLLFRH

BSA, sequence (P02769 25-607): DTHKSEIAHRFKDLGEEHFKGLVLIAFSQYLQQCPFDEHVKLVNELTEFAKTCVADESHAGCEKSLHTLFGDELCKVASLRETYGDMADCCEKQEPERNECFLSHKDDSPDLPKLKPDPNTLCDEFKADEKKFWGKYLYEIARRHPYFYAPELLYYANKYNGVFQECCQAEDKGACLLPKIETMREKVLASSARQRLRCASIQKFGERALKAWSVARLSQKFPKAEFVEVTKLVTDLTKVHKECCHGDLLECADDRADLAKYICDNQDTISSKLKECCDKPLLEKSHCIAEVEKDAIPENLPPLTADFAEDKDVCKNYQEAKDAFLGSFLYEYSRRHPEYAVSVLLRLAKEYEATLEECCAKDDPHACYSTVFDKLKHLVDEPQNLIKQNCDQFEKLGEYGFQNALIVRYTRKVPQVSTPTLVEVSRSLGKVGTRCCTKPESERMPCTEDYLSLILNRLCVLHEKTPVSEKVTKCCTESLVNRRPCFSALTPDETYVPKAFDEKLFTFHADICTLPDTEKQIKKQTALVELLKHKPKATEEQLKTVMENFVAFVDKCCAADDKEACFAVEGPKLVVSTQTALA
Arginyl-tRNA-protein transferase Ate1, isoform Ate1-3 (mouse), sequence (Q9Z2A5 other isoform, or with tags, fused parts or gaps): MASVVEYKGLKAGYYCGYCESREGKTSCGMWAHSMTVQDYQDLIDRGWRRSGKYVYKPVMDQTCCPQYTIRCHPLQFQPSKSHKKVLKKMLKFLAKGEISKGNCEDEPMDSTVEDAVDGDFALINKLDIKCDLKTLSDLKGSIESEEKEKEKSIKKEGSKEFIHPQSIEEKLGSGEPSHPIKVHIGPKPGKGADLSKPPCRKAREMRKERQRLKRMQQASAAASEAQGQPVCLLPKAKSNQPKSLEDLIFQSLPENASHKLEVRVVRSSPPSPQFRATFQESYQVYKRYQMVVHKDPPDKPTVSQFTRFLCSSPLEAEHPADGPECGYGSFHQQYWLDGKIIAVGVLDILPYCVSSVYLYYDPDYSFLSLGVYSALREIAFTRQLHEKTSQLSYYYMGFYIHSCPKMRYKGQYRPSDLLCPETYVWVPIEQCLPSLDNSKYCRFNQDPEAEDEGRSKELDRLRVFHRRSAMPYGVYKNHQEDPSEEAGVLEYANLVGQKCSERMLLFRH

Q: What does the source list for “BSA (from UniProt P02769 25-607) (natural protein)”?
A: Km of arginylation of the substrate by Ate1-3 (enzyme kinetics by ITC) [1]: 52.5 µM; Km of arginylation of the substrate by Ate1-1 (enzyme kinetics by ITC) [2]: 33.2 µM
